Test in all cases: Kinase Profiling Assay
Assay type in all cases: biochemical
Holding throughout (conditions): peptide 100 μM

Experiment [1] addresses T1, IRAK1(h) (Homo sapiens, UniProt P51617).
T1 construct: purchased Millipore
In outline:
(§1)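 Kinase inhibition by MK2 inhibitory peptides was profiled radiometrically, with substrate phosphorylation from labeled ATP read by scintillation after capture on a charged filter. Values are relative to 100% activity and measured in duplicate.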

Experiment [2] addresses T2, IRR(h) (Homo sapiens, UniProt P14616).
T2 construct: purchased Millipore
The procedure, abridged: as §1

In experiment [3] the target is CaMKIIγ(h) (Homo sapiens, UniProt Q13555). The procedure, abridged: as §1
Chain of CaMKIIγ(h) (Q13555 whole entry): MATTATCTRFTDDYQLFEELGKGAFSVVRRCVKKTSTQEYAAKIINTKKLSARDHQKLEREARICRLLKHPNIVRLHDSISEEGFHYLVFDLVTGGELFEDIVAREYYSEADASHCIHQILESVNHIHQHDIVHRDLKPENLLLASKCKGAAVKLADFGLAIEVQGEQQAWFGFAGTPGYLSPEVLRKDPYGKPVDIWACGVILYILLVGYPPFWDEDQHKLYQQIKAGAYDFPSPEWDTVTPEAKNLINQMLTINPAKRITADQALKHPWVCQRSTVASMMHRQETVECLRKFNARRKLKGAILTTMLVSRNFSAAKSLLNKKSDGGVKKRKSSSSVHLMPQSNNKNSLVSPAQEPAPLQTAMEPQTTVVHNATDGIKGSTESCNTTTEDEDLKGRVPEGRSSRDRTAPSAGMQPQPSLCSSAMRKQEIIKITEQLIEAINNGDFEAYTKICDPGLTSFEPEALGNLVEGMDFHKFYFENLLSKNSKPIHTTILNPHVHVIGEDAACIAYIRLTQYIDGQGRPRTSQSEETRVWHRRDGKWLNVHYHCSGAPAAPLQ
In experiment [4] the target is T3, CaMKIV(h) (Homo sapiens, UniProt Q16566).
T3 sequence (Q16566 1-473): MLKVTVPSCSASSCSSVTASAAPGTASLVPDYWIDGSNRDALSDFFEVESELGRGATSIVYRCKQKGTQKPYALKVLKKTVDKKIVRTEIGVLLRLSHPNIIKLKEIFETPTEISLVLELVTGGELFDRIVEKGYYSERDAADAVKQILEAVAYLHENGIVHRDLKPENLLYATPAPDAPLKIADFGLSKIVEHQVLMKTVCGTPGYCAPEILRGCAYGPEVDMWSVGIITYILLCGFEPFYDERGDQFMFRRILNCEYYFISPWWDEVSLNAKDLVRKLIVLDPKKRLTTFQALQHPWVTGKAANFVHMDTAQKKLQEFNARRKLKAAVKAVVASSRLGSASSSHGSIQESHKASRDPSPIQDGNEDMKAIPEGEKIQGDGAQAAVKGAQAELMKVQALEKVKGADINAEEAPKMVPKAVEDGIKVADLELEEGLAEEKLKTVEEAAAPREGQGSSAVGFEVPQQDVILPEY
The procedure, abridged: as §1

Experiment [5] concerns the target T4, NEK2(h) (Homo sapiens, UniProt P51955).
T4 construct: purchased Millipore
T4 sequence (P51955 1-445): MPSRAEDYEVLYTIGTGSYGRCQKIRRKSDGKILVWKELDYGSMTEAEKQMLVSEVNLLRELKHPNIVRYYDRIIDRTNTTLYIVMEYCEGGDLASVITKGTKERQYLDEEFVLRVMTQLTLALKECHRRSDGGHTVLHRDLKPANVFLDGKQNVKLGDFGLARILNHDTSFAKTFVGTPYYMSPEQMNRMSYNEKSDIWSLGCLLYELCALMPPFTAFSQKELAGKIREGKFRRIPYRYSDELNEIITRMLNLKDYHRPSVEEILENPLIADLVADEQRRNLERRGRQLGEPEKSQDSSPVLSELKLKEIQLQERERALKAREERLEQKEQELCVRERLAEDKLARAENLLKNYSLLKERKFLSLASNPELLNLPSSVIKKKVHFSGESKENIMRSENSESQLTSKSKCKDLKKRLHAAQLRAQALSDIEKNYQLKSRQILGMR
The procedure, abridged: as §1

The target in experiment [6] is T5, MLCK(h) (Homo sapiens, UniProt Q9H1R3).
T5 construct: purchased Millipore
T5 sequence (Q9H1R3 2-596 limits assumed): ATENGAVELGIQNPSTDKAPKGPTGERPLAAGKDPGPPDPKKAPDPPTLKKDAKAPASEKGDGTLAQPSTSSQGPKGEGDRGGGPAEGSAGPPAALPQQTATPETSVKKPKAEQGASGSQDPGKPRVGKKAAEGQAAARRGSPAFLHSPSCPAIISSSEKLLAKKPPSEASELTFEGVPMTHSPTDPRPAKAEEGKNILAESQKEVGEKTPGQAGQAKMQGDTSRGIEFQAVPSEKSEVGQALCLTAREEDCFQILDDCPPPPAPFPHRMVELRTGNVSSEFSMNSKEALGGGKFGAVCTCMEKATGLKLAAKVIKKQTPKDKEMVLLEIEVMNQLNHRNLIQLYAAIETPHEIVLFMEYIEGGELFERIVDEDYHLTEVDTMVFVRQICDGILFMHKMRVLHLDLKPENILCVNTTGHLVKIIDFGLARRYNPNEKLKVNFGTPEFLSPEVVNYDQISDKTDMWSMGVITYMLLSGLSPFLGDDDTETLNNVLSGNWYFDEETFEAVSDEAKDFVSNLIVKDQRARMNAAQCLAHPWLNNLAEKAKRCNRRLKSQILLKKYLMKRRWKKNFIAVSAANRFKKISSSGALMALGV
In outline:
as §1

Experiment [7] addresses T6, SGK(h) (Homo sapiens, UniProt O00141).
T6 construct: purchased Millipore
T6 sequence (O00141 1-431): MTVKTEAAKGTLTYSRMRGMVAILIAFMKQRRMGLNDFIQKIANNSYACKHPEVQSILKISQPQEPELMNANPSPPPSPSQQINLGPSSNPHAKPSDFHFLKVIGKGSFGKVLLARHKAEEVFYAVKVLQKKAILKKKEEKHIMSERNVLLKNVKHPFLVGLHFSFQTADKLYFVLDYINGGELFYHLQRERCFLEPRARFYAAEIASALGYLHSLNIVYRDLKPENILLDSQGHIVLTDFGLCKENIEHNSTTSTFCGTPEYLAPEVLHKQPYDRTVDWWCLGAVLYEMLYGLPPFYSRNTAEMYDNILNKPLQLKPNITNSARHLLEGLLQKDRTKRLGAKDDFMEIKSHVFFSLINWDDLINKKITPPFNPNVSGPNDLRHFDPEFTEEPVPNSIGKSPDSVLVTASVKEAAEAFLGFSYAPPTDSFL
In outline:
as §1

Experiment [8] deals with Rsk2(h) (Homo sapiens, UniProt P51812). The procedure, abridged: as §1
Chain of Rsk2(h) (P51812 whole entry): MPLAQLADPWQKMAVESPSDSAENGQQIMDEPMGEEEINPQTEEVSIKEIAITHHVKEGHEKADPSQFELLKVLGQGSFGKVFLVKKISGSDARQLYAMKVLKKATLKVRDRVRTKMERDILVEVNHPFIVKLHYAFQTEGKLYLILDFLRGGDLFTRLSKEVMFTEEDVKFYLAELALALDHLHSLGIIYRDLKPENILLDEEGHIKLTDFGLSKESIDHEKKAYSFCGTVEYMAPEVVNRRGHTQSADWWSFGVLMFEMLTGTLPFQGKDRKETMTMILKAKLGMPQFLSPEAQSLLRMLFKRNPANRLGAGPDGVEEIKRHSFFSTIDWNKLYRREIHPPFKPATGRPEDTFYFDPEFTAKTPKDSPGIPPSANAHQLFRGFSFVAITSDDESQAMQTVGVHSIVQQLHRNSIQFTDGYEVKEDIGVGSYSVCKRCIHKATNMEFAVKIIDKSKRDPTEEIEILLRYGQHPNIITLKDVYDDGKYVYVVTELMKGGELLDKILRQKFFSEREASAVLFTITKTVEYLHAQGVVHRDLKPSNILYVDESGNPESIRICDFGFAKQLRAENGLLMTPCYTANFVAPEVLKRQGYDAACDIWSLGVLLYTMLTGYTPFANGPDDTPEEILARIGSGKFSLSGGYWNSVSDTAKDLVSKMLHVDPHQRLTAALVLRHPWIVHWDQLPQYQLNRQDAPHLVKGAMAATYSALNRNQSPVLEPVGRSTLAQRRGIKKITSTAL
Experiment [9] addresses T7, Src(1-530)(h) (Homo sapiens, UniProt P12931).
T7 construct: Src(1-530)(h); purchased Millipore
The procedure, abridged: as §1

Experiment [10] deals with T8, LIMK1(h) (Homo sapiens, UniProt P53667).
T8 construct: purchased Millipore
T8 sequence (P53667 whole entry): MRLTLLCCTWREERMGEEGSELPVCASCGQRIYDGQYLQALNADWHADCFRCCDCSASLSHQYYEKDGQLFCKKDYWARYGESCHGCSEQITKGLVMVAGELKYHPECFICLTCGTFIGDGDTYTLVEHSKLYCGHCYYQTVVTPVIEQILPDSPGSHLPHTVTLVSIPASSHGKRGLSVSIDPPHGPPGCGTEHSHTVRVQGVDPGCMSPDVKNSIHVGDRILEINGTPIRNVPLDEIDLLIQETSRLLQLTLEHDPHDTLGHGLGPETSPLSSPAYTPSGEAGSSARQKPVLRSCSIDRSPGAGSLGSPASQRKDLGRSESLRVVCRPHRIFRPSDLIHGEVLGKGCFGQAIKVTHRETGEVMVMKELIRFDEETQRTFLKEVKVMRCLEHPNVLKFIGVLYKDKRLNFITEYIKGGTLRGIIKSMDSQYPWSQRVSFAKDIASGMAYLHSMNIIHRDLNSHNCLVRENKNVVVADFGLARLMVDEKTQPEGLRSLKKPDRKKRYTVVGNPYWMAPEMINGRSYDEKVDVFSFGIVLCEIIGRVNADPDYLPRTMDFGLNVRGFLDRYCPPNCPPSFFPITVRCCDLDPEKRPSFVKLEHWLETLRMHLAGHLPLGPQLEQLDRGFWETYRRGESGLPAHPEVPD
The procedure, abridged:
as §1

The target in experiment [11] is T9, PKG1β(h) (Homo sapiens, UniProt Q13976).
T9 sequence (Q13976 1-686 isoform Q13976-2): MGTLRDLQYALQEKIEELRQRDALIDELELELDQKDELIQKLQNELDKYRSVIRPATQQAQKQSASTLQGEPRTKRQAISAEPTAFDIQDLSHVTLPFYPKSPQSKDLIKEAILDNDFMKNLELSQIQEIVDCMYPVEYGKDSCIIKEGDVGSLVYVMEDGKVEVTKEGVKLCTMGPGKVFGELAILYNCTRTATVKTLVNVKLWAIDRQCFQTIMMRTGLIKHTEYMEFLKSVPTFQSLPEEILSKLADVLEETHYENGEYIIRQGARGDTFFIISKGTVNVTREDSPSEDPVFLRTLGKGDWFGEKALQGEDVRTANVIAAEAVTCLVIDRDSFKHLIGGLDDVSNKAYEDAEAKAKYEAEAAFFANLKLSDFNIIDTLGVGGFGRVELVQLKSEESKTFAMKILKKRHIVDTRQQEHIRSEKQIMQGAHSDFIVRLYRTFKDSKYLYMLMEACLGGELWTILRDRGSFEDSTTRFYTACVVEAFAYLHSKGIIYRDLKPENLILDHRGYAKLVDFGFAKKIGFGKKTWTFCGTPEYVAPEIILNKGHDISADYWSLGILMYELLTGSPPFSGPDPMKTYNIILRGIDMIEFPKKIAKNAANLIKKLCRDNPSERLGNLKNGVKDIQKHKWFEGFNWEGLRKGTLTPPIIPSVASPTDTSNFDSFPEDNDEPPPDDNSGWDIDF
In outline: as §1

Experiment [12] addresses T10, Met(Y1248H)(h) (Homo sapiens, UniProt P08581, Y1230H).
T10 construct: purchased Millipore
The procedure, abridged:
as §1

No end group written: not given here.

T1 sequence (P51617 whole entry): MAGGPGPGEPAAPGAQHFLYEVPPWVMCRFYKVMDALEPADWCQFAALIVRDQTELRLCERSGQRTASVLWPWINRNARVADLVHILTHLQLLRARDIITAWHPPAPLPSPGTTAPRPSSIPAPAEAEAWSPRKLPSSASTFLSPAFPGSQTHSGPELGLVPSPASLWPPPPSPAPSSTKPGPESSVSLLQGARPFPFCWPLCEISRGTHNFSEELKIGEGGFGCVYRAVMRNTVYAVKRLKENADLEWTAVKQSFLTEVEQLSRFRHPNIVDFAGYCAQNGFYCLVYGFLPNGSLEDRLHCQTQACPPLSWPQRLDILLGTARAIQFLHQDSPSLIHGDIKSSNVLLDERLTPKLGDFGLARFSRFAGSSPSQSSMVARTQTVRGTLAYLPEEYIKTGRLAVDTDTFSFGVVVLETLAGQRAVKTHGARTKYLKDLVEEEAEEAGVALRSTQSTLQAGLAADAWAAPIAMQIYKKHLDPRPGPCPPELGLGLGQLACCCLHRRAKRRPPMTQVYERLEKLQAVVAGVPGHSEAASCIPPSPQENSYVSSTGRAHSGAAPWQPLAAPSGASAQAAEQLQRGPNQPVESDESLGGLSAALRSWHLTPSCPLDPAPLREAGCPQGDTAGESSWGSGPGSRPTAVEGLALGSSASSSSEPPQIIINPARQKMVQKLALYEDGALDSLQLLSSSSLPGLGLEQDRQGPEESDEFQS
T2 sequence (P14616 27-1297): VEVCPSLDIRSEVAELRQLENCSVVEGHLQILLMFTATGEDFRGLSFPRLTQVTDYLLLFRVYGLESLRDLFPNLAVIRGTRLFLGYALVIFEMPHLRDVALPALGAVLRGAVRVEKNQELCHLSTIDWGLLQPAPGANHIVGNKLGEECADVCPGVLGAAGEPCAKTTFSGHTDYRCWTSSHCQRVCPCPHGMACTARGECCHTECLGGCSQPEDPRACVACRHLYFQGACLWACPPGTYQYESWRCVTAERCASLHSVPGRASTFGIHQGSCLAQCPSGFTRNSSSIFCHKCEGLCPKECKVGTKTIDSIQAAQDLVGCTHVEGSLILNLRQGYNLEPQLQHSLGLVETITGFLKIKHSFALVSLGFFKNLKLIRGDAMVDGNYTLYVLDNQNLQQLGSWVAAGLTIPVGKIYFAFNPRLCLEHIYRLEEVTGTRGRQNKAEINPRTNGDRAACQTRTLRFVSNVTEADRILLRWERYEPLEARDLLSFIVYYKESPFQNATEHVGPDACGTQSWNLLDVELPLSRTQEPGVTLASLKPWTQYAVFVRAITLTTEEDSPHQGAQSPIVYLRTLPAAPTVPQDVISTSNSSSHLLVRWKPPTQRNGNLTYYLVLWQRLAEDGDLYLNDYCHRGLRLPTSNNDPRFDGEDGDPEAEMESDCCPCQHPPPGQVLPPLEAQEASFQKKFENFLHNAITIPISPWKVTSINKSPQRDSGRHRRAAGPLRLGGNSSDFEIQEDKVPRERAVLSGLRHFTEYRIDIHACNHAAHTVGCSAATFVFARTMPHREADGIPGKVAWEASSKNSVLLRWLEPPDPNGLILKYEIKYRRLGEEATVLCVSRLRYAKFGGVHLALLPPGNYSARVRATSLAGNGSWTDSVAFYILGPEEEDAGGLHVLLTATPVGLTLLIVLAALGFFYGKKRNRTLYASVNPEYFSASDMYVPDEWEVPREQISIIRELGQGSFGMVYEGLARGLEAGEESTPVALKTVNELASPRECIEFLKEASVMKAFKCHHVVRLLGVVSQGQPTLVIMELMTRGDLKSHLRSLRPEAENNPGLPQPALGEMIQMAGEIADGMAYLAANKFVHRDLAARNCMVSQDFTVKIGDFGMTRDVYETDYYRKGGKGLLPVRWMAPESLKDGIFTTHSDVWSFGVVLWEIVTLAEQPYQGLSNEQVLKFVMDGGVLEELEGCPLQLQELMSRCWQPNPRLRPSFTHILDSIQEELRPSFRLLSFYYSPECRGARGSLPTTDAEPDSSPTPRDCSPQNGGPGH

Turning to KAFAKLAARLYRKALARQLGVAA [MMI-0400], the “% activity” value was determined as 93% in [1]; 8% in experiment [2]; 3% in experiment [3]; 18% in experiment [4]; 61% in experiment [5]; 1% in [6]. Also, the “% activity” value was 54% in experiment [7]; 38% in experiment [8]; 19% in experiment [9]; 92% in experiment [10]; 53% in [11]; 63% in experiment [12].
Regarding FAKLAARLYRKALARQLGVAA [MMI-0300], the “% activity” value was found to be 95% in experiment [1]; 8% in [2]; 5% in experiment [3]; 17% in experiment [4]; 78% in experiment [5]; 2% in experiment [6]. Besides, the “% activity” value in [7] was 48%; in experiment [8] it was 51%; in experiment [9], 23%; in [10], 88%; in experiment [11], 50%.
With YARAAARQARAKALARQLGVAA [MMI-0100], the “% activity” value came to 85% in [2]; 85% in experiment [6]; 128% in experiment [7]; 71% in experiment [11]; 88% in experiment [12].
For “HRRIKAWLKKIKALARQLGVAA (Mammal) [MMI-0500]”, the “% activity” value is reported as 5% in experiment [1]; 10% in [2]; 3% in experiment [3]; -1% in [4]; 0% in [5]; 0% in [6]. Besides, the “% activity” value came out at 2% in [7]; 14% in experiment [8]; 21% in [9]; 87% in experiment [10]; 24% in experiment [11]; 126% in experiment [12].
Regarding “YARAAARQARAKALNRQLGVA (Mammal) [MMI-0200]”, the “% activity” value was 101% in experiment [1]; 69% in [2]; 94% in experiment [3]; 71% in experiment [4]; 97% in experiment [5]; 101% in experiment [8]. The “% activity” value in experiment [9] came out at 75%; in [11], 57%; in experiment [12], 153%.

Source of the values: patent US20150258192A1, “COMPOSITIONS AND METHODS FOR PREVENTING OR TREATING CHRONIC LUNG ALLOGRAFT DYSFUNCTION (CLAD) AND IDIOPATHIC PULMONARY FIBROSIS (IPF)” (priority 2014, published 2015).
